Results: the supplement of paper PMC9170038

test system: K4 kissing-loop RNA reporter; assay: apparent KD of K4 kissing-loop reporter; higher = weaker reporter binding; conditions: Eterna round: R107; input ligand: none
Description: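 RNA-MaP round R107: designed RNA switches with theophylline, tryptophan, arginine or FMN aptamers are transcribed on-chip within common flanks. They are titrated with a labelled K4 kissing-loop RNA reporter in RNA-MaP buffer (100 mM Tris pH 7.5, 80 mM KCl, 4 mM MgCl2), without ligand or with the indicated ligand. Median apparent KD per design.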
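Also: bound reporter read as fluorescence of individual clusters on recovered sequencing chips by microscopy, with normalized cluster intensities fitted with a binding model.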

Sequence	apparent KD of K4 kissing-loop reporter [nM]
AGUGAUGUGGGAAGGAGCGGUAGAUGAGUUCAGUGAUGUUGAAGUGAUGCUGUAGUGAUGUGCCAGGUAGGUCGCCUAGAUGUUA [KL-XARG B24]	258
CUUGUACAAGUGAUGUUUGUUAUAUCCGAAGGAGCGUCGUAAUAGACAGGUAGGUCGCGGAGUAAGAUAGUUUUUUUAAUAUCAU [JR_Nu_SSArginiA_Sub029]	556
UAGUGUCGCGCAGGAUAUACUGAUUGGAGUGAUGUUCCAAACAUGAACGUGAGACUUUUACAAGAAGUAGAAGGGCGUGAGACAU [Exclusion FMN B GF 21]	405
CGGAUGUAGUGAUGUUAUAUAAGAUGUAGACGAGGACCGGUACGGCCGCCACUCGAAACGGCUACUAGCGCGUUGCGAGGUGUGC [ExTryptoA.CI]	960
GUUACGCAUGGAAGGAGCGCAGGCUCAACAAAUAGCUCAGUGAUGUUGAGCAUAUUAAAACUGCAGGUAGGUCGCCAUGUGUAAC [Ex Arginine B K4 23]	657
AAAUGCAGCAAACGAGUGAUGUUCGACGAUACCAGCCUCGAUAGAGGCCCUUGGCAGCGUACAUCAAAGCCAAGGGCUGCUAAAA [#SwitchBubble 3]	552
UUAUAUCUCUGACUUUCACUUUGCGUAUCUGAGGAUAUCUGAAUUCAGAGAAGGCAGUGAUGUUGCUUUGCUGUGUGUCUGAGAA [AK2 Exc FMN A]	526
UCCUCGAAUCGACCUCGAAAGAGGAUGGAUACCAGUCUUGAUAAAGACCCUUGGCAGCCAGUGAUGUUGGAACGAGGUAAAUAAA [#SwitchBubble 19 #K4Late]	571
GUCUAGCUAGCAGGAUAUAGCUGGUAGUGAUGUUACCACUAGAACUCUGCGGAAACGCAGAGUAUCCUAGAAGGGCUAGCUAGAC	75.4
UUUGGAAGCGGUGUUGAUUAGGGAGCGGAAGGAGCGCCGAUUAUGGCAGGUAGGUCGCCGGAAUGUAGUGAUGUUGCAUAGAGGU [ExArgA.X]	240
GGAGGGAUCUCGGCCGCCACUCAUAAGAAAUGAACCUCAGAAAUAUAGUGAUGUUAUAUAAAGAAGAGGACCGGGAGAAAGGAGG [ExTryptoB.B]	161
UGACUGGACUGAAGGAGCGGGAAACUCCUAGUGAUGUUAGGAAUACGAGACAAAGUCUCGACCCAGGUAGGUCGCAGUCUAGUCU [ArgBS 17 #SwitchBubble #StaticStem]	108
AGAGUUGACGAAAAGUCAACUCUACGAGAAGGAGCGCACGAAAGUGCAGGUAGGUCGCUCAGUCCAGUGAUGUUGGAACAUAAAA [#OpenEnded 8]	68.8
ACCUACCAUUAGUGAUGUUAAUGGACGGAAGGAGCGCGGAUAUCCGCAGGUAGGUCGCCGAAGGCUAGACAUUGUCUAGCCAUUA [AK1.2 SS Arginine A]	196
UGAUACCAGACUGAUACCAGCCACAGAGUCAAAGACUCUGAUAAAGGAACCAGUGAUGUUGGCCCUUGGCAGCAGUCUGGUAUCU [TheoBX 24 #SwitchBubble #StaticStem]	118
CUCGUGGGUUUGAGAGGGCUUGUGGGAAGUGAGGAUAUUUAGGGAGAAAGAAGGCACUAUAGAAUAUAGUGAUGUUAUAUAAGGG [SSFMNA.N]	200
AUUAAUUUCAGAGGAUAUCGUUAUUUUUUAUAGUAUAUUCAAUUAUGCAGUGAUGUUGCUAUUAAUCGAGAAGGCUGAUUUAUAA [JR_ExcFMNB_Sub002]	156
AGACUACCACACUGUCAAUAGACAGUGUACUAGGAUAUGCUGAUAAGCAGAAGGAGUGAUGUUCCUUGGUAGUCAAUAAAAUAAU [FmnAX 13 U28+U67]	258
GUUGCAGCCCGUGAUACCAGCAUCGGUCGCCGGGUCCAGUGAUGUUGGGCUUGCGUUCUAUGCCCUUGGCAGCGCGGCCUGACAG [Qulaanar]	174
UGAUAAAGCAGUGAUGUUGCAAGAAAUGAUACCAGUUAAGAAGAGAACCCUUGGCAGCAUAAAGUGCGCUCUAAUGAGUGUGCUU [whbob_SS_Theo_A_w50]	123
CCAUCGCUAUUCGAUACCAGUCAUAAAAUCUUUGGUUAAAUAAAGGAGUGAUGUUCCAAAGACCCUUGGCAGCGAAUAGUGAUGG [Theophylline B K4 6]	695
GUGCAGUGAUGUUGCACGAGGAAAGACGAUACCAGCCGCAAAUGUGGCCCUUGGCAGCGUGGGCUAGCACAAAAUAUGCUAGUCU [Ricegeusat]	119

same assay, conditions: Eterna round: R107; input ligand: theophylline 20 uM

Sequence	apparent KD of K4 kissing-loop reporter [nM]
AGACUACUGAUAGGAUAUAACAUACUACUCGUAUACCGAAAGGUAUACGAGACCCUUCUAGUGAUGUUAGAAGGGUCGGUAGUCA [Omei KL FMN B Exc B v8]	68.6
GAAUGAAAUAUCUGGCCCUAUCAGAAUUGGAAGGAUAUGACGGUCAUCAGAAGGUCCAACUCGUAGUGAUGUUGCGGGUUUUAAA [theeternabot_exclusion_KL_FMN_A_21]	42.8
UGGAUAUAGUGAUGUUAUAUAGAGAUGGAUACCAGUUAAGAGAAUAGCCCUUGGCAGCCGAAAGAAGUAUCAUUAGAGAAGAAUG [ExTheophyl.Ad]	194
AGGCGCUUAAGUCAGUGAUGUUGAUUAUAUCGAGGACCGGUACGGCCGCCACUCGGCUUUCAUCCGCCAUCGUAGUCCUAAAACC [theeternabot_sameState_KL_Trp_A_25]	534
UGAACUUUUGCUAGGAACCGUCUAGCUCUUUAGGAUAUCUGGAAACAGAGAAGGAAAGACCUACAGAGUGAUGUUCUGCGUUCAU	316
AGAGUUAAUUAGUCUUUUUUUACAUUAAGUCAGGAUAUCGUAUAUUCGAGAAGGGACACAUGCUAGUGAUGUUAGCUAUUUCUCA [JR_Nu_ExcFMNA_Sub019]	71.7
AGAUCUAAGCUGAGUUAGUCACCAUAAAGCAAGGAUAUUCCACGAAGAAGAAGGUGCAUCAUCCAUAGUGAUGUUAUGGCACGGG [theeternabot_sameState_KL_FMN_A_7]	672
GCCGUAGAUGGAAGGAGCGUGUCAAAGUGAUGUUUUGAUUAACUCCCUACGGGAUAGAUGACACAGGUAGGUCGCCAUCUACGGC	115
GCCGUAGAUUGAAGGAGCGGCACCCACGGCUCUAACACCUAAGUGAUGUUUAGGUAGUGGUGCCAGGUAGGUCGCAAUCUACGGC	133
GUGUGACUAGUGAUGUUGGUUGCGUGGGAAGGAGCGCAGUAAAAUGCAGGUAGGUCGCCCGUAUCUCUGAUAAAAGAUUAAUUCA [KL-SSArg-A10]	137
GCACUGAAGUGAUGUUUUUGUGCACGUUGAAAGGAUAUCUGCUUGUAGAGAAGGUUCUGUUUGUGCGGAGCGGGCGUUACCGGCA [theeternabot_exclusion_KL_FMN_A_32]	285
UUCGAUCAGUGAUGUUGAUCAUCAGUCGAAGGAGCGCUAGAGAUAGCAGGUAGGUCGCGACUGCAAGGUGUGAGAACACCUCGAA [Arg A SS t9a]	444
CAAAUAUGCGGUAGGUUCAAGCGCUGGGAAGGAGCGCAGAUGACUGCAGGUAGGUCGCCCAGUGAUGUUGGGCUUUCCACCUAUU [Edbeaan]	146
AAGGUUGUGCAUGGGAGUGAUGUUCCCACGCAGGAUAUCGCUCACGCGAGAAGGGCGAGCACAACCGCUCAAGAAACUUGAGCAA [Omei KL FMN A SS C v2]	106
CGUAGUUGGGCGGCCGCCACUUGAACAGCUUUGCCAAAGGCAGAGCUCUAGAGUGAUGUUCUGGCAAGGACCGGGUCCAACUACA [#02 K4 Tryptophan B Same State]	822
AGAUGACACCGAGGAUAUCCUAAUAUGGGUGAUGUUAGCGAUGUUGAAGGUGUAGUGAUGUUAUGCGGAGAAGGCGGUGUUGUUU [BDazzled - #21 - Exc. FMN B]	139
CGCAAGCAGCCAGUGAUGUUGGCCGCCUUGCGAGGACCGGUACGGCCGCCACUCGAAGGCGGCUAGUAGUAGUCUGUCUAACGGA [KL-XTryp-A16]	74

Sequence	apparent KD of K4 kissing-loop reporter [nM]
AAUAAGCGCGGAAGGAGCGCCGCCAGUGAUGUUGGGAGUUAGAUACCAGUGAUGUUGGGCCGGCAGGUAGGUCGCCGCAAAGCUU [Exclusion Arginine B Gf 14]	137
AUUCUGUUUUUGAUGUUUUUUGUAUAAUGGCAGGAUAUCGUAGAAGCGAGAAGGGCUUUUAUGCGUUAUGAGUGAUGUUUGUAGG [ttytewvmullin]	275
CCCGGUCCACGAAGGAGCGCCGUGCAGUGAUGUUGCAGUUAGAUCCAGUGAUGUUUGGGCCGGCAGGUAGGUCGCGUGGCCCGGG [Excusion Arginine B GF 24]	197
GGUAGCAUGGCGGCCGCCACUGUUCGUGUUGCUAGCAGAUUCCAGUGAUGUUGGAAGCCUAGGUACAGGACCGGGCCAUGCUACC	102
CCGCUGCCCUCAGGAUAUUAAGUAUUAGUGAUGUUAGUAAACCGAUGGCGAAAGCCAUCGGUAUGUUGAGAAGGGAGGGUAGCGG [whbob_SS_FMNB__2th199]	1140
AGUGAUGUGGGAAGGAGCGGUAGAUGAGUUCAGUGAUGUUGAAGUGAUGCUGUAGUGAUGUGCCAGGUAGGUCGCCUAGAUGUUA [KL-XARG B24]	130
CUUGUACAAGUGAUGUUUGUUAUAUCCGAAGGAGCGUCGUAAUAGACAGGUAGGUCGCGGAGUAAGAUAGUUUUUUUAAUAUCAU [JR_Nu_SSArginiA_Sub029]	462
UAGUGUCGCGCAGGAUAUACUGAUUGGAGUGAUGUUCCAAACAUGAACGUGAGACUUUUACAAGAAGUAGAAGGGCGUGAGACAU [Exclusion FMN B GF 21]	393
CGGAUGUAGUGAUGUUAUAUAAGAUGUAGACGAGGACCGGUACGGCCGCCACUCGAAACGGCUACUAGCGCGUUGCGAGGUGUGC [ExTryptoA.CI]	674
GUUACGCAUGGAAGGAGCGCAGGCUCAACAAAUAGCUCAGUGAUGUUGAGCAUAUUAAAACUGCAGGUAGGUCGCCAUGUGUAAC [Ex Arginine B K4 23]	671
AAAUGCAGCAAACGAGUGAUGUUCGACGAUACCAGCCUCGAUAGAGGCCCUUGGCAGCGUACAUCAAAGCCAAGGGCUGCUAAAA [#SwitchBubble 3]	499
UUAUAUCUCUGACUUUCACUUUGCGUAUCUGAGGAUAUCUGAAUUCAGAGAAGGCAGUGAUGUUGCUUUGCUGUGUGUCUGAGAA [AK2 Exc FMN A]	499
UCCUCGAAUCGACCUCGAAAGAGGAUGGAUACCAGUCUUGAUAAAGACCCUUGGCAGCCAGUGAUGUUGGAACGAGGUAAAUAAA [#SwitchBubble 19 #K4Late]	535
GUCUAGCUAGCAGGAUAUAGCUGGUAGUGAUGUUACCACUAGAACUCUGCGGAAACGCAGAGUAUCCUAGAAGGGCUAGCUAGAC	63.9
UUUGGAAGCGGUGUUGAUUAGGGAGCGGAAGGAGCGCCGAUUAUGGCAGGUAGGUCGCCGGAAUGUAGUGAUGUUGCAUAGAGGU [ExArgA.X]	273
GGAGGGAUCUCGGCCGCCACUCAUAAGAAAUGAACCUCAGAAAUAUAGUGAUGUUAUAUAAAGAAGAGGACCGGGAGAAAGGAGG [ExTryptoB.B]	158
